Measurements: patent US20060142546A1, “Immunogenic muc1 glycopeptides” (priority 2002, published 2006)
One block for each compound: values may come before it. Where a SMILES comes first, the peptide text is derived from it. Where no end group is shown, it is not given here. The star is where a group is joined. Cbz = O=C(OCc1ccccc1)*; CH2F = FC*

Experiments:
[1] = target: T1, human cathepsin L (Homo sapiens, UniProt P07711); test: In vitro proteolysis of native MUC1 and MUC1 (glyco)peptides with human cathepsin L; type: biochemical; conditions: for proteolysis by cathepsin L: 3 h or 24 h
T1 construct: in the cathepsin L preparation from human liver; purchased Sigma (München, Germany); host or cells: human liver
T1 sequence (P07711 114-288 limits assumed): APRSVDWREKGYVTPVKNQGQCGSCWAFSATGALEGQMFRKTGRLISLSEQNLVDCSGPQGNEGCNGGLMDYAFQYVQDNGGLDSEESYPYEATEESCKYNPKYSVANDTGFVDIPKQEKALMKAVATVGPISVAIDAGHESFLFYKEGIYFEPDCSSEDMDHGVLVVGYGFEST
T1 sequence (P07711 292-333 limits assumed): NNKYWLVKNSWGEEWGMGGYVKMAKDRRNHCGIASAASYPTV
Procedure: FIG. 4: In vitro proteolysis of MUC1 glycopeptide A3 by human cathepsin L. N-terminally free or biotinylated MUC1 glycopeptide A3 (10 μg) were treated for 3 h with 1 milliunit of cathepsin L in the presence or absence of the cathepsin L/B-specific cysteine protease inhibitor Z-Leu-Leu-Leu-fluoromethyl ketone (1 μM) using 0.1M sodium acetate, pH 5.5, containing 1 mM EDTA, and 1 mM DTT as reaction buffer.
Human cathepsins L and D were purchased from Sigma (München, Germany) and solubilized in 0.1 M sodium acetate buffer, pH 5.5, containing 1 mM EDTA (cathepsin D) and 1 mM dithiotreitol (cathepsin L). 2-5 units of enzyme(s) were added to 100 μg of mucin or recombinant fusion protein or to 10 μg of (glyco)peptide substrates in a total volume of 20 μl digestion buffer (see above). The reaction mixtures were incubated at 37° C. and 2 μl were withdrawn after 3 h or 24 h and diluted 20 fold in 0.1% aqueous TFA prior to MALDI mass spectrometry. In case of native MUC1 samples with complex O-glycosylation (MUC1 from tumor ascites, HMFG-MUC1, partially deglycosylated HMFG-MUC1, and MFP6 fusion protein) the digest was desalted by solid-phase extraction (ZipTip C18) and the (glyco)peptides were deglycosylated by β-elimination/ethylaminylation in 70% ethylamine at 50° C. as previously described (Müller and Hanisch, J. Biol. Chem. 277 (2002), 26103-26112). Each glycosylated position in the peptide fragments corresponds to the addition of a 27 u mass increment.

[2] = test system: Cathepsin L-like activity in low-density endosomes from mouse dendritic cells; test: Proteolysis of TAP25 by low-density endosomal fractions from mouse dendritic cells; type: biochemical; conditions: 1 μM inhibitor, TAP25 as substrate
Procedure: Mouse dendritic cells (10^8) were homogenized by fine-needle aspiration on ice using 1 ml of 0.3 M sucrose, 0.01 M Hepes as buffer (without protease inhibitors). After dilution to 7 ml and centrifugation at 850 g for 10 min to remove intact cells and nuclei, 6 ml of the supernatant were centrifuged over 24 ml of 30% Percoll with 0.3 M sucrose, 0.01 M Hepes for 105 min at 20.000 rpm in a centrifuge (model J2-21 M/E, rotor: JA-20, Beckman instruments, München, Germany) (Barnes et al., J. Exp. Med. 181 (1995), 1715-1727). The gradient was fractionated by gravity siphon (30×1 ml) and each fraction was analysed after sonication for the presence of MHC class II molecules by enzyme immunoassay with anti-H2 antibody (rat hybridoma cell line M1/42.3.9.8.HLK obtained from the ATCC), β-hexosamimidase activity (Barnes et al., 1995) and cathepsin L related proteolytic activity using TAP25 peptide as substrate (5 μg). The samples were incubated for 24 h at 37° C., diluted 20 fold in aqueous TFA and analysed by MALDI mass spectrometry. For specific inhibition of cathepsin L activity, the corresponding fractions were mixed with 1 μM Z-Leu-Leu-Leu-fluoromethyl ketone (Sigma).

[3] = test system: human immature dendritic cells; test: Processing of MUC1 antigen by human monocyte-derived dendritic cells (antigen pulse, MALDI/LC-MS of fragments); type: cell-based; conditions: cellular lysate or culture supernatant, mass range up to 8 kDa
Procedure: Human immature DCs were pulsed with native, N-terminally unmodified, soluble antigens, while the mature mouse DCs had to be fed with particulate antigen to reach sufficient antigen load. […] Simultaneously, the maturation process of the cells was induced by addition of 20 ng/ml tumor necrosis factor (TNF-α; Sigma-Aldrich, Munich, Germany) and 10 μg/ml of anti-CD40 antibody (Pharmingen, San Diego, Calif.). The cells were finally separated from medium by centrifugation, washed in PBS and both fractions were analysed for the presence of peptide/glycopeptide fragments according to the protocol described below.
The human or mouse dendritic cell fractions were treated on ice for 15 min with 100 μl 1% NP40, 10 mM Tris-HCl, 150 mM NaCl, pH 8.0 containing a cocktail of protease inhibitors (Sigma P8340, München, Germany) followed by ultrasonication for 2 min. […] To avoid selection of product subfractions by affinity-isolation, in most experiments the peptides were enriched by solid-phase extraction on reversed-phase columns.
Peptides and glycopeptides contained in the cell-free supernatants were affinity-isolated by solid-phase extraction on reversed-phase supports (100 μg polysphere C18, 50 μl Poros C18). […]

Compound: GalNAc-MUC1: partially deglycosylated HMFG-MUC1
structural assignment of repeat fragment ion ([1]; Table 3, native mucin, after de-O-glycosylation/ethylaminylation): GVT20 + 1-4 HexNAc | proteolysis by cathepsin L ([1]; pH 5.5, 1 mM DTT, 37° C.): fragmentation by cathepsin L at low efficiency

Compound: CC(C)C[C@H](NC(=O)[C@H](CC(C)C)NC(=O)[C@H](CC(C)C)NC(=O)OCc1ccccc1)C(=O)CF [Z-Leu-Leu-Leu-fluoromethyl ketone, reference compound] (Cbz-Leu-Leu-Leu-CH2F)
inhibition of catalytic activity directed to the Thr-Ser bond ([1]; inhibitor 1 μM, substrate glycopeptide A3): specifically inhibited | inhibition of cysteine protease in low density endosomes [2]: inhibitable

Compound: GST20-AES (GSTAPAAHGVTSAPESRPAP; also: glycosylated, sites not given here)
structural assignment of product ([1]; Table 2, 3 h, 37° C., pH 5.5): SAP9 | Average mass of production (mass range 500-4500 Da) ([1]; Table 2, synthetic monomeric repeat peptides, N-terminally unmodified, 3 h, 37° C., pH 5.5, 1 mM DTT): 910.8 Da | cleavage ([1]; standard conditions for cysteine proteases, incubation 3 h): 80%

Compound: Asc-MUC1: MUC1 from pooled human tumor ascites
proteolysis by cathepsin L ([1]; pH 5.5, 1 mM DTT, 37° C.): not digested | fragmentation of antigen [3]: No fragmentation

Continued, values first:

proteolysis by cathepsin L ([1]; pH 5.5, 1 mM DTT, 37° C.): not digested
Compound: HMFG-MUC1: mucin from human milk fat globule membranes

proteolysis by cathepsin L ([1]; pH 5.5, 1 mM DTT, 37° C.): stable to proteolysis
Compound: AHGVTSAPESRPAPGSTAPAA (not fully specified (residue 5); also: GalNAc glycan at Thr5 (H4), Ser10 (H5) or Thr17 (H6), which one is not fixed for this name, biotinylated)
